Article PMC314469, “Protein Interaction Networks by Proteome Peptide Scanning” (PLoS Biology, 2004)

T1: Abp1 SH3 (ABP1_YEAST), P15891
T1 chain: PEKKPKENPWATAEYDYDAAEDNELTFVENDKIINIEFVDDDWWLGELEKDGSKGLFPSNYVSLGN


Biological target: T1, Abp1 SH3 (ABP1_YEAST), P15891
Test: SPOT array

In order of rising normalised SPOT signal, Boehringer light units (BLU); mean over the file's lines of this peptide:
1. KLYYVLYSSLPSKP [YGR216C 582-595]  0.4
2. KNYDVIVPNVWRP [YML115C 378-390]  15.7
3. KKQTQLSSTAPKKP [YGR056W 686-699]  34.9
4. KPVAPTSTDAPAKP [YOL027C 66-79]  45.8
5. KPFNPTLPEGIRP [YJL050W 736-748]  87.3
6. KNSDMMIPLDVKP [YOL081W 3046-3058]  89
7. KPEYFPFPIYDKP [YBR086C 485-497]  96.4
8. KQQQEQQNKAPEKP [YGL105W 191-204]  97.5
9. KQKNIYVISTPKRP [YLR398C 492-505]  98.7
10. KLDIISDPESERP [YGL004C 356-368]  107
11. KLQGSFNPEYIKP [YML072C 1243-1255]  108
12. KLKELQTITVPGKP [YER124C 120-133]  131
13. KPGWVVYPPPPKP [YML035C 221-233]  154
14. KKSRSTGFKNPLRP [YML061C 150-163]  184
15. KLGPISTSKSPKKP [YJL051W 233-246]  200
16. KNDGSSSFVKPRRP [YNL215W 286-299]  202
17. KLKITRNPNPSKP [YHR208W 27-39]  245
18. KLHFSSFPNDIRP [YER097W 23-35]  396
19. KMQRYFRPIIVRP [YLR290C 188-200]  541
20. KPLININPYTRKP [YLR357W 223-235]  1140
21. KMIMKLIPKDVKP [YJL131C 312-324]  1480
22. KMISNRRPVPRRP [YPR091C 656-668]  6230
23. KPTPPPKPSHLKP [YNL020C 608-620]  133000
